# Measurements: patent US20130196348A1 (ACTELION PHARMACEUTICALS, published 2013)
# T1: human GALR2 (Galanin Receptor 2) (human, UniProt O43603 1-387)
# T1 sequence: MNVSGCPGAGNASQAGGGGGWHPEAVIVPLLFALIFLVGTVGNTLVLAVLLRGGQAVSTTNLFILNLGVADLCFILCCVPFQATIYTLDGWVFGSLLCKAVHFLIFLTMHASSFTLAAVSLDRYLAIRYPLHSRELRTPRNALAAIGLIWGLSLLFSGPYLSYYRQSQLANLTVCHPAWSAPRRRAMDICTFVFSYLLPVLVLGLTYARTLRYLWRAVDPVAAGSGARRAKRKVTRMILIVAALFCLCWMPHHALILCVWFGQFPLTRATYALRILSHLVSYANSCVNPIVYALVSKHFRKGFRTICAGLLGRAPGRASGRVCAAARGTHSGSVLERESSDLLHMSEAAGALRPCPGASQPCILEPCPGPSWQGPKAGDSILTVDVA
# Molecular target: T1, human GALR2 (Galanin Receptor 2)
# Experiment: cell-based or functional assay
FLIPR EC50 [nM],Aequorin EC50 [nM],Binder
0.1,,NWTPQAMLYLKGAAG [NWTPQAMLYLKGAAG (SEQ ID NO: 31)]
4.3,,NWTPQAMLYLKGA [NWTPQAMLYLKGA (SEQ ID NO: 18)]
55,,NWTPQPMLYLKGAQG [NWTPQPMLYLKGAQG (SEQ ID NO: 36)]
0.7,,AWTPQAMLYLKGAQG [AWTPQAMLYLKGAQG (SEQ ID NO: 23)]
4.8,,WTPQAMLYLKGAQG [WTPQAMLYLKGAQG (SEQ ID NO: 22)]
6.7,,NWTPQAMLYLKG [NWTPQAMLYLKG (SEQ ID NO: 19)]
0.8,,NWTPQAMAYLKGAQG [NWTPQAMAYLKGAQG (SEQ ID NO: 28)]
0.05,,NWPPQAMLYLKGAQG [NWPPQAMLYLKGAQG (SEQ ID NO: 34)]
3.4,,NWTPQAALYLKGAQG [NWTPQAALYLKGAQG (SEQ ID NO: 27)]
,5.06,NWTPQAMLYLKGAQGH [rat Neuropeptide Q (SEQ ID NO: 15)]
2,,NWTPQAMLYLKGAQA [NWTPQAMLYLKGAQA (SEQ ID NO: 32)]
10.9,,NWAPQAMLYLKGAQG [NWAPQAMLYLKGAQG (SEQ ID NO: 24)]
9.6,,NWTPQAMLYLAGAQG [NWTPQAMLYLAGAQG (SEQ ID NO: 29)]
,17.6,NWTPQAMLYLKGAQGRRFISDQS [human pro Neuropeptide Q (36-58) (SEQ ID NO: 16)]
296,,NWTPQAMLYLPGAQG [NWTPQAMLYLPGAQG (SEQ ID NO: 37)]
20,,NWTPQAMLYLKPAQG [NWTPQAMLYLKPAQG (SEQ ID NO: 38)]
0.2,,NWTPQAMLYLKGAPG [NWTPQAMLYLKGAPG (SEQ ID NO: 40)]
1.9,,NWTPQAMLYLK [NWTPQAMLYLK (SEQ ID NO: 20)]
0.3,,NWTPQAMLYLKGAQP [NWTPQAMLYLKGAQP (SEQ ID NO: 41)]
4.2,5.7,NWTPQAMLYLKGAQG [human Neuropeptide Q-Glycine (SEQ ID NO: 14)]
0.3,,NWTPQAMLYLKGPQG [NWTPQAMLYLKGPQG (SEQ ID NO: 39)]
47,,NWTPQAMLYLKAAQG [NWTPQAMLYLKAAQG (SEQ ID NO: 30)]
,> 10000,SPNPQLLTIPEAATILLASLQKSPEDEEKNFDQTRFLEDSLLNW [human pro Neuropeptide Q (73-116) (SEQ ID NO: 17)]
0.1,,PWTPQAMLYLKGAQG [PWTPQAMLYLKGAQG (SEQ ID NO: 33)]
12.5,,NWTPAAMLYLKGAQG [NWTPAAMLYLKGAQG (SEQ ID NO: 26)]
97,,NWTPPAMLYLKGAQG [NWTPPAMLYLKGAQG (SEQ ID NO: 35)]
3.6,,NWTAQAMLYLKGAQG [NWTAQAMLYLKGAQG (SEQ ID NO: 25)]
14,,NWTPQAMLYL [NWTPQAMLYL (SEQ ID NO: 21)]
